This test has as its target T1, Band 3 / glycophorin A (Wright b, Wrb epitope) on human red blood cells (human, UniProt P02724 20-150).
T1 construct: whole, on cells; also called Band3/GPA; AE1
T1 sequence 1: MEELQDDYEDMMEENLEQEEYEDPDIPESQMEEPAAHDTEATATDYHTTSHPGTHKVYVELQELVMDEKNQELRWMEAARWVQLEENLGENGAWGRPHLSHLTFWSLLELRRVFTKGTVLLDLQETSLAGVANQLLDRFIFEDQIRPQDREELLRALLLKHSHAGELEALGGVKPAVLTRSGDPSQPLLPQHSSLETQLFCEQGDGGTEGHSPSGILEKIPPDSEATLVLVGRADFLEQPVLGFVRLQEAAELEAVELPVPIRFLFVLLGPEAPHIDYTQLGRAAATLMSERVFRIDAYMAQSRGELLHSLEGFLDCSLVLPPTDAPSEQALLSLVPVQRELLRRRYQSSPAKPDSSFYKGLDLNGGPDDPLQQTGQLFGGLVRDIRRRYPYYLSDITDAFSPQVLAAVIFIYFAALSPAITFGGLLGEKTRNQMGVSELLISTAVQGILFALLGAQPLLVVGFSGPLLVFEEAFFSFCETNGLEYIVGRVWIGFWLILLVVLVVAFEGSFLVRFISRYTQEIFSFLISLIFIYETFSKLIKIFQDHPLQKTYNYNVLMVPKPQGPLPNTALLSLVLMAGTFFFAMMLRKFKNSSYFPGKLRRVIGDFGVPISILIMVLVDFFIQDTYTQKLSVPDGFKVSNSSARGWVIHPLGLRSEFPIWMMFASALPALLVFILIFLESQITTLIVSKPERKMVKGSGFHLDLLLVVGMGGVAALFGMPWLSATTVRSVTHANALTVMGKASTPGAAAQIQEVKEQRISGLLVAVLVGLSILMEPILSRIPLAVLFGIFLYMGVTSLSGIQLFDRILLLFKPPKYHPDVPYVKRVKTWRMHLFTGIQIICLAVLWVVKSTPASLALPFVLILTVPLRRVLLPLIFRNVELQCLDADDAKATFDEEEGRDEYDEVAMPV
T1 sequence 2: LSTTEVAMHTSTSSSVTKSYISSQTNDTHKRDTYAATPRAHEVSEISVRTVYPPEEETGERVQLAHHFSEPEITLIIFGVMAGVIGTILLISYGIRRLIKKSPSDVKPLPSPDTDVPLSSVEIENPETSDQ
As to the kind of experiment: Fab/phage binding assays on human RBCs incl. rare RBC types lacking conserved antigens. On the procedure: An IgG Fab/phage display library was prepared from the peripheral blood lymphocytes of a hyperimmunized macaque using homologous human V-region oligonucleotides (Siegel D L, R. M., Lee H, Blancher A., Production of large repertories of macaque mAbs to human RBCs using phage display. Transfusion, 1999. 39(S10): p. 92S, which is incorporated herein by reference). Fab/phage specific for human RBCs were isolated by panning on intact human RBCs. Monoclonal Fab/phage were grown to produce antibodies for immunoassays and their corresponding DNA was extracted for sequencing. To identify target epitopes, antibodies were screened against RBCs of known serologic phenotypes, including rare cells lacking highly conserved antigens, using standard immunohematologic techniques (Roback, J. D., Technical Manual. 2014: American Association of Blood Banks (AABB), which is incorporated herein by reference.)
Using antibody phage display, we identified non-human-primate Fab antibody fragments to antigenic determinants on human RBCs. By panning phage libraries on human RBCs, we produced a Fab/phage preparation with >10⁷ RBC-specific clones capable of agglutinating human RBCs. By performing binding assays against rare RBC types lacking highly conserved antigens and epitopes, we identified the target antigens of >30 of these clones. At least 34 clones bound the Wright b (Wrb) epitope formed by a Band 3/GPA interaction, present on the RBCs of essentially 100% of the human population. The Wrb epitope, determined by the protein sequence of Band 3, is a site of association between Band 3 with GPA, and GPA expression is simultaneously required for its presence on the membrane (Huang C H, Reid M E, Xie S S, Blumenfeld 00. Human red blood cell Wright antigens: a genetic and evolutionary perspective on glycophorin A-band 3 interaction. Blood. 1996; 87(9):3942-3947). At least 3 other clones bound to a highly-conserved epitope Rh17(Hr0) on human RhCE protein, also present on essentially 100% of the human population. Both these targets are specific for erythroid lineage (Rojewski M T, Schrezenmeier H, Flegel W A. Tissue distribution of blood group membrane proteins beyond red cells: evidence from cDNA libraries. Transfus Apher Sci.

B1: KP2-09 Fab/phage clone (anti-Band 3, Wrb) (Fab, V domains shown)
VH: EVQLLESGPGLVRPSETLSLTCAVSGYSISSGYGWHWIRQPPGKGLESLGYIGGSRGNTNYNPSLKSRVTISTDTSKNQFSLKLRSVTAADTAVYYCARDSGYNTRYFDYWGQGVLVTVSS
VL: AAELTQSPATLSLSPGERATLSCRASQSVGSRLAWYQQKPGQAPRLLIYGASSRATGIPDRFSGSGSRTDFTLTISSLEPEDVGVYHCQQYNDLLPLTFGGGTKVEIK
B1: the binding result was “binds”.

B2: KP2-11 Fab/phage clone (anti-Band 3, Wrb) (Fab, V domains shown)
VH: EVQLQLPGPGLVKPSETLSLTCTVSGSSLSSAYGWNWIRQPPGKGLEWIGSIGGSRDNTNYNPSLKRRVTISKDTSKNQFSLKLKSVTAADTAVYYCAQRGAYGYSYFDYWGQGVLVAVSS
VL: ELTLTQSPATLSLSPGETATLSCRASQSLGSRLAWYQQKPGQPPRLLIYGASTRATGIPDRFSGSGSRTDFTLTISSLEPEDVGVYHCQQYNDFPPLTFGGGTKVEIK
For B2, the binding result is reported as “binds”.

B3: KP3-02 Fab/phage clone (anti-Band 3, Wrb) (Fab, V domains shown)
VH: EVQLLESGPGLVRPSETLSLTCAVSGYSISSGYGWHWIRQPPGKGLESLGYIGGSRGNTNYNPSLKSRVTISTDTSKNQFSLKLRSVTAADTAVYYCARDSGYNTRYFDYWGQGVLVTVSS
VL: AAELTQSPATLSLSPGETATLSCRASQSVGSNLAWYQQKPGQAPKLLVHSAYFRATGIPDRFSGSGSRTDFTLTISSLEPEDVGVYHCQQYNDLLPLTFGGGTKVEIK
On to B3, for which the binding result was “binds”.

B4: KP3-08 Fab/phage clone (anti-Band 3, Wrb) (Fab, V domains shown)
VH: EVQLLESGPGLVKPSETLSLTCTVSGSSLSSAYGWNWIRQPPGKGLEWIGSIGGSRDNTNYNPSLKRRVTISKDTSKNQFSLKLKSVTAADTAVYYCAQRGAYGYSYFDYWGQGVLVAVSS
VL: ELTLTQSPATLSLSPGETATLSCRASQSLGGRLAWYQQKPGQAPRLLIYGASTRATGIPDRFSGSGSRTEFTLTIAGLEPEDVGVYHCQQYNDFLPLTFGGGTKVEIK
As for B4, the binding result is given as “binds”.

B5: KP2-01 Fab/phage clone (anti-Band 3, Wrb) (Fab, V domains shown)
VH: EVQLLESGPGLVKPSETLSLTCAVSGDSISSGLGWSWIRQTPGKGLEWIGYIGGSRGNTNYNPSFKSRVTISRDTSKNQFSLRLSSMTAADTAVYYCARRAPYWGYSYLDYWGQGVLVTVSS
VL: AAELTQSPATLSLSPGETATLSCRASQSIGSSLAWYQQRPGQAPKLLVHSAYFRAAGIPDRFSGSGSRTDFTLTISSLEPEDVGVYHCQQYNDLLPLTFGGGTKVELK
Consider B5, for which the binding result is on record as “binds”.

B6: KP2-08 Fab/phage clone (anti-Band 3, Wrb) (Fab, V domains shown)
VH: EVQLLESGPGLVKPSETLSLTCAVSGYSISSGYGWNWIRQPPGKGLEWIGSIGGSRDNTNYNPSLKSRVTLSKDTSKNHFSLRLRSVTAADTAVYYCARDGGYGSRYMDSWGQGVLVAVSS
VL: AAELTQSPATLSLSPGEAATLSCRASQSIGTSLAWYQQKPGQAPRLLVHSAYFRATGIADRFSGSGSRTDFTLTISSLEPEDVGVYYCQQYNDLLPLTFGGGTKVEIK
In the case of B6, the binding result is “binds”.

B7: KP2-04 Fab/phage clone (anti-Band 3, Wrb) (Fab, V domains shown)
VH: EVQLLESGPGLVKPSETLSLTCAVSGYSLSSAYGWNWIRQSPGKGLEWIGSIGGSRDNVNYNPSLKRRVTISKDTSTNHFSLRLSSVTAADTAVYYCVRRATYGNSYFDSWGQGVQVTVSS
VL: ELTLTQSPATLSLSPGETATLSCRASQSVGSHLAWYQQKPGQAPKLLVHSAYFRATGIPDRFSGSGSRTDFTLTISSLEPEDVGVYHCQQYNDLLPLTFGGGTKVEIK
For the molecule B7, the binding result was “binds”.

B8: KP3-05 Fab/phage clone (anti-Band 3, Wrb) (Fab, V domains shown)
VH: EVQLLESGPGLVKPSETLSLTCTVSGSSLSSAYGWNWIRQPPGKGLEWIGSIGGSRDNTNYNPSLKRRVTISKDTSKNQFSLKLKSVTAADTAVYYCAQRGAYGYSYFDYWGQGVLVAVSS
VL: AAELTQSPATLSLSPGETATLSCRASQSVGSSLAWYQQKPGQAPKLLVHSAYFRATGIPDRFSGSGSRTDFTLTISSLEPEDVGVYHCHQYNDLLPLTFGGGTKVEIK
B8: the binding result is “binds”.

B9: KP2-07 Fab/phage clone (anti-Band 3, Wrb) (Fab, V domains shown)
VH: EVQLLESGPGLVKPSETLSLTCAVSGDSISSGYGWHWIRQVPGRGLEWIGSIGGSRGTTNYNPSLKSRVTISEDTSKNQFSLSLRSVSAADTAVYFCARDSGYSFRYFDFWGQGVLVTVSS
VL: ELVMTQSPATLSLSPGETATLSCRASQSVGSNLAWYQQKPGQAPKLLVHSAYFRATGIPDRFSGSGSRTDFTLTISSLEPEDVGVYHCQQYNDLLPLTFGGGTKVEIN
As for B9, the binding result is listed as “binds”.

B10: KP2-02 Fab/phage clone (anti-Band 3, Wrb) (Fab, V domains shown)
VH: EVQLLESGPGLVKPSETLSLTCAVSGGSLSGGYDWSWIRQSSRKGLEWIGYIYDSRWTTNYNPSLKKRVTISIDTSKNQFSLNLKSVTAADTAVYYCARRGGYGASYFDLWGQGVLVTVSS
VL: AAELTQSPATLSLFPGETATLSCRASQSIGSHLAWYQQKPGQAPKLLVHSVSFRATGIPDRFRGSGSRTDFTLTISSLEPEDVGVYHCQQYNDLLPLTFGGGTKVEIK
Turning to B10, the binding result is given as “binds”.

B11: KP2-06 Fab/phage clone (anti-Band 3, Wrb) (Fab, V domains shown)
VH: EVQLLESGPGLVKPSETLSLTCTVSGSSLSSAYGWNWIRQPPGKGLEWIGSIGGSRDNTNYNPSLKRRVTISKDTSKNQFSLKLKSVTAADTAVYYCAQRGAYGYSYFDYWGQGVLVAVSS
VL: AAELTQSPATLSLSPGETATLSCRASQSVGSSLAWYQQKPGQAPKLLVHSISVRATGIPDRFSGSGSRTDFTLTITSLEPEDVGVYHCQQYNDFFPLTFGGGTKVEIK
On to B11, for which the binding result is “binds”.

B12: KP3-13 Fab/phage clone (anti-Band 3, Wrb) (Fab, V domains shown)
VH: EVQLLESGPGLVRPSETLSLTCAVSGGSLSGGYDWSWIRQSPRKGLEWIGYIYDSRGTTNYNPSLKRRVTISIDTSKNQFSLNLKSVTAADTAVYYCARRGGYGASYFDLWGQGVLVTVSS
VL: AAELTQSPATLSLSPGETATLSCRASQSVGSNLAWYQQKPGQAPKLLVHSASVRATGIPDRFSGSGSRTDFTLTISSLEPEDVGVYHCQQYNDFFPLTFGGGTKVEIK
In the case of B12, the binding result is reported as “binds”.

B13: KP3-16 Fab/phage clone (anti-Band 3, Wrb) (Fab, V domains shown)
VH: EVQLLESGPGLVKPSETLSLTCTVSGSSLSSAYGWNWIRQPPGKGLEWIGSIGGSRDNTNYNPSLKRRVTISKDTSKNQFSLKLKSVTAADTAVYYCAQRGAYGYSYFDYWGQGVLVAVSS
VL: AAELTQSPATLSLSPGETATLSCRASQSLGSRLAWYQQKPGQAPRLLIYGASTRATGIPDRFSGSGSRTDFTLTISSLEPEDVGVYHCQQYNDFLPLTFGGGTKVEIK
Consider B13, for which the binding result was “binds”.

B14: KP3-15 Fab/phage clone (anti-Band 3, Wrb) (Fab, V domains shown)
VH: EVQLLESGPGLVKPSETLSLTCTVSGSSLSSAYGWNWIRQPPGKGLEWIGSIGGNRDNTNYNPSLKRRVTISKDTSKNQFSLKLKSVTAADTAVYYCAQRGAYGYSYFDYWGQGVLVAVSS
VL: AAELTQSPATLSVSPGEAATLSCRASQTVGRNLAWYQQKPGQAPKLLVHSAHFRATGIPDRFSGSGSGTDFTLTISSLEPEDAGIYHCQQYNDLLPLTFGGGTKVEIK
Consider B14, for which the binding result is given as “binds”.

B15: KP3-18 Fab/phage clone (anti-Band 3, Wrb) (Fab, V domains shown)
VH: EVQLLEWGPGLVKPSETLSLTCAVSGYSLSSAYGWNWIRQSPGKGLEWIGSIGGSRDNVNYNPSLKRRVTISKDTSTNHFSLRLSSVTAADTAVYYCVRRATYGNSYFDSWGQGVQVTVSS
VL: ELTLTQSPATLSLSPGETATLSCRASQSVGSYLAWYQQKPGQAPKLLVHSAHFRATGIPDRFSGSGSRTDFTLTISSLEPEDVGVYHCQQYNDLLPLTFGGGTKVEIK
As to B15, the binding result is “binds”.
